Our source for the Luciferase activity and AlamarBlue activity values is patent publication US7887851B2, “Aromatase activator” (Kao Corporation, priority 2004, dated 2011).

Assay [1] has as its system transcription control region for exon 1b of human aromatase gene. Nature of the assay: Luciferase reporter assay, Ex1b-luc in HepG2 cell (expression of exon 1b of aromatase gene). It is filed as cell-based. The note with it: 20 hours. How it is done:
The region containing transcription control region for exon 1b of human aromatase gene and a part of the exon 1b was amplified by PCR from genomic DNA extracted from human normal keratinocyte by using the following primers: […]
The resulting PCR product was treated with restriction enzymes SpeI and EcoRI, and incorporated in SpeI site and EcoRI site in SeaPansy null Control Vector (Toyo Ink Mfg. Co., Ltd.) to produce Ex1b-luc plasmid. This plasmid was used in the luciferase assay as will be described below.
Immortalized human hepatoma-derived cell (HepG2 cell) […]
The transfected cells were cultivated overnight, and plant extract prepared in Production Example 1, Table 2, or yeast extract (“YeastLiquid B”, Ichimaru Pharcos Co Ltd.), silk protein extract (“Silkgen G Soluble KE”, Ichimaru Pharcos Co Ltd.), milk protein (“Bioderma SX-14” Ichimaru Pharcos Co Ltd.), “lactoferrin S FREE”, Ichimaru Pharcos Co Ltd.), natto extract (“Soybean polymer F B-20”, Ichimaru Pharcos Co Ltd.), or royal jelly (“royal jelly extract”, Ichimaru Pharcos Co Ltd.) was added (1% or 0.1%), and the cultivation was continued for another 20 hours. After adding 20 μL of alamarBlue (BIOSOURCE), fluorescence intensity (excitation light 544 nm, fluorescence 590 nm) was measured. Luciferase activity was also measured by using PicaGene Dual SeaPansy Luminescence kit (Nippon Gene). […]

A further assay deals with HepG2 cell. Kind of assay: alamarBlue fluorescence in Ex1b-luc transfected HepG2 cell. It is filed as cell-based, human. The note with it: 20 hours. How it is done: Immortalized human hepatoma-derived cell (HepG2 cell)
HepG2 cell was inoculated to 96 well culture plate at 30,000 cells per well, and Ex1b-luc was introduced using lipofectamine reagent (Invitrogen) according to the protocol described in the attached manual. The DNA was used at an amount of 0.1 μg per well. The same procedure was repeated for control without adding the DNA (2 wells).
The transfected cells were cultivated overnight, and plant extract prepared in Production Example 1, Table 2, or yeast extract (“YeastLiquid B”, Ichimaru Pharcos Co Ltd.), silk protein extract (“Silkgen G Soluble KE”, Ichimaru Pharcos Co Ltd.), milk protein (“Bioderma SX-14” Ichimaru Pharcos Co Ltd.), “lactoferrin S FREE”, Ichimaru Pharcos Co Ltd.), natto extract (“Soybean polymer F B-20”, Ichimaru Pharcos Co Ltd.), or royal jelly (“royal jelly extract”, Ichimaru Pharcos Co Ltd.) was added (1% or 0.1%), and the cultivation was continued for another 20 hours. After adding 20 μL of alamarBlue (BIOSOURCE), fluorescence intensity (excitation light 544 nm, fluorescence 590 nm) was measured. Luciferase activity was also measured by using PicaGene Dual SeaPansy Luminescence kit (Nippon Gene). The cells were lysed by adding 25 μL per well of the lysis buffer that had been diluted 5× lysis buffer to 1× concentration.

B1: Lactoferrin: milk protein; commercial product "Lactoferrin S FREE" (Ichimaru Pharcos) (protein, UniProt P24627 20-708, looked up)
Lactotransferrin: APRKNVRWCTISQPEWFKCRRWQWRMKKLGAPSITCVRRAFALECIRAIAEKKADAVTLDGGMVFEAGRDPYKLRPVAAEIYGTKESPQTHYYAVAVVKKGSNFQLDQLQGRKSCHTGLGRSAGWIIPMGILRPYLSWTESLEPLQGAVAKFFSASCVPCIDRQAYPNLCQLCKGEGENQCACSSREPYFGYSGAFKCLQDGAGDVAFVKETTVFENLPEKADRDQYELLCLNNSRAPVDAFKECHLAQVPSHAVVARSVDGKEDLIWKLLSKAQEKFGKNKSRSFQLFGSPPGQRDLLFKDSALGFLRIPSKVDSALYLGSRYLTTLKNLRETAEEVKARYTRVVWCAVGPEEQKKCQQWSQQSGQNVTCATASTTDDCIVLVLKGEADALNLDGGYIYTAGKCGLVPVLAENRKSSKHSSLDCVLRPTEGYLAVAVVKKANEGLTWNSLKDKKSCHTAVDRTAGWNIPMGLIVNQTGSCAFDEFFSQSCAPGADPKSRLCALCAGDDQGLDKCVPNSKEKYYGYTGAFRCLAEDVGDVAFVKNDTVWENTNGESTADWAKNLNREDFRLLCLDGTRKPVTEAQSCHLAVAPNHAVVSRSDRAAHVKQVLLHQQALFGKNGKNCPDKFCLFKSETKNLLFNDNTECLAKLGGRPTYEEYLGTEYVTAIANLKKCSTSPLLEACAFLTR
Take B1: the Luciferase activity amounted to 155.2% in assay [1] (added at 0.1%) and 181.5% in assay [1] (added at 1%). The AlamarBlue activity with HepG2 cell (added at 0.1%) stood at 135.9%; in the assay with HepG2 cell (added at 1%) it was 138.2%.
